Article PMC8882101

Assays:
[1] = biological target: Cry1Ia38 protoxin (Bacillus thuringiensis (strain IE-1)); test: SDS-PAGE of samples heated at 50 °C, Western blot; control without BBMV: Cry1Ia protein incubated in carbonate buffer pH 10.5 at 37 °C, sample heated at 50 °C for 3 min, 10% SDS-PAGE, polyclonal anti-Cry1Ia
[2] = biological target: Cry1Ia38 protoxin (Bacillus thuringiensis (strain IE-1)); test: SDS-PAGE of samples heated at 50 °C, Western blot; 5 µg Cry1Ia protein incubated with 2 µg O. nubilalis BBMV in 50 µl carbonate buffer pH 10.5 at 37 °C (5-30 min); BBMV pellet heated at 50 °C for 3 min, 10% SDS-PAGE, polyclonal anti-Cry1Ia
[3] = biological target: Cry1Ia38 protoxin (Bacillus thuringiensis (strain IE-1)); test: SEC; Superdex-200 10/300 GL, carbonate buffer (50 mM Na2CO3, 100 mM NaCl) pH 10.5; oligomeric state from the molecular weight of the eluted peaks against standards
[4] = biological target: fully MJ activated Cry1Ia toxin (Bacillus thuringiensis (strain IE-1)); test: as above
[5] = biological target: fully trypsin activated Cry1Ia toxin (Bacillus thuringiensis (strain IE-1)); test: as above
[6] = biological target: partially processed Cry1Ia protoxin (~67 kDa intermediate fragment) (Bacillus thuringiensis (strain IE-1)); test: SDS-PAGE of samples heated at 50 °C, Western blot; 5 µg Cry1Ia protein incubated with 2 µg O. nubilalis BBMV in 50 µl carbonate buffer pH 10.5 at 37 °C (5-30 min); BBMV pellet heated at 50 °C for 3 min, 10% SDS-PAGE, polyclonal anti-Cry1Ia

For Cry1Ia38 protoxin (natural protein), the stoichiometry N [1] was 2, the stoichiometry N [2] was 2 and the stoichiometry N [3] was 2.
With “fully MJ activated Cry1Ia toxin (domain or fragment)” the stoichiometry N [4] was 2.
Substance “fully trypsin activated Cry1Ia toxin (domain or fragment)” has a stoichiometry N [5] of 2.
“partially processed Cry1Ia protoxin (~67 kDa intermediate fragment) (domain or fragment)” showed a stoichiometry N [6] of 2.
